System: TEV substrate

## AcTEV protease
  TEV Substrate Cleavage (%), 30 minute: 73.9%
  TEV Substrate Cleavage (%), 60 minute: 91.6%
  TEV Substrate Cleavage (%), 120 minute: 97.2%
